Assay results taken from the DeepSol protein solubility set.

Experiment: soluble on expression in E. coli; label from the status in PepcDB or PDB records

Sequence	soluble on expression in E. coli
MATAETSVLIGYLSDYGYSDRLSQAIGRGLVKTGVAVEMVDLRAVDPQELIEAVSSARGIVLGTPPSQPSEAVATALSTIFAAAHNKQAIGLFDSYGGDDEPIDALLAQFRNLGLHTAFPPIRVKDQPTEAIYQQCEESGTDLGQWLTRADAIQTMKSLEHHHHHH	not soluble
MEGFGMPKLIISGRGGSGKSTLVTLIAHTLKEQKKRVLVVDSDESNIGLSGILGIEPAEKTLMDYLGGKPRVMKKLRSMIRDGETEPELFREKFDLESLSQEFVCWVGSLGLMQIGKIDHAMEGCACPMGAVTRDFLNHVRLEEDQWVLVDTEAGVEHFGRGIVEGADAVVMVVDPSSDAVLLAEKAAKLTHEADKRFGVILNKIDEETEPILTELLTSEGNEIKGVLPYSPAITKMNLKGESLGAYAVKNEVDEIIRELMKCLEHHHHHH	not soluble
MGSDKIHHHHHHMTKHLYIDEYGSFVGKTSERLTVSQGGELKAEIPLSRLKSVNILKGGISLSSDIIEACSLRGIKIFFLDFRNVAHTAITSTANHAVANVRKAQFLTIESNHGREIARTLIVGKLKNQRATLQYFYKYLKNTDKQSKKLESAIEKIKETIESLKNIELSNNKHWSQIIMGKEGGMAAIYFDAIGAELLEECDFTTRIGRGAEDIMNSALNYGYAILTSFVWQSIINAGLEAYAGVLHTNRPGKPSLVLDVMEEYRAWVVDRNIIKLRSSLAGKKELDAELKKKIITEINATMNKKHLYNGKNLSLQGVMQRQVYRLVGAFMQQNRYKSYIFKW	not soluble
MGSDKIHHHHHHMGKPHRIALALQGGGVHGAFTWGVLDALLEEAATGKIEFVGVSGASSGALTATAMAYGYHEGAAQPGPASARSRRMAEAARTKIRELWETVARAAFWGGNPFVAAIGLAQDWNIDDTPAARWADVAGGNTPAAESGLGTYLTAVLRDVLPQIPAIFALPQEGTPTLIVAATDIGECRRQLFIDGAVSPDAVRASTNLPTSLHTVSIGDHHYWDGGYMGNPPLTPLVERLRETNAEDLVLVTLNPLHRDGPPPKGGRQVLDRLNEVAFNASLVHEVNAIETINRLVDADMIKEPPPGQHPYRRVNLHRIHADEEMVKLGVYSKDAPAWDFLVYLRDLGRKAFTESWETIRPALGKHSSWDTNSVCDQILARKAITTREK	not soluble
AHHHHHHGSNLRNKLKLYVITDRRLKPEVESVREALEGGATAIQMRIKNAPTREMYEIGKTLRQLTREYDALFFVDDRVDVALAVDADGVQLGPEDMPIEVAKEIAPNLIIGASVYSLEEALEAEKKGADYLGAGSVFPTKTKEDARVIGLEGLRKIVESVKIPVVAIGGINKDNAREVLKTGVDGIAVISAVMGAEDVRKATEELRKIVEEVLG	soluble
LTFSLNFTNKSNDIYGTGWLFDWKGDEKALGIDGSFVPSITSNIDNSLLKDDQFTVYLATNLHVADALRNDQDYEPYKKDQNKQDFTENTKTEFFSLGK	soluble
MSDTNYAVIYDLHSHTTASDGCLTPEALVHRAVEMRVGTLAITDHDTTAAIAPAREEISRSGLALNLIPGVEISTVWENHEIHIVGLNIDITHPLMCEFLAQQTERRNQRAQLIAERLEKAQIPGALEGAQRLAQGGAVTRGHFARFLVECGKASSMADVFKKYLARGKTGYVPPQWCTIEQAIDVIHHSGGKAVLAHPGRYNLSAKWLKRLVAHFAEHHGDAMEVAQCQQSPNERTQLAALARQHHLWASQGSDFHQPCPWIELGRKLWLPAGVEGVWQLWEQPQNTTERELLEHHHHHH	not soluble
MHIDNIENLSDREFDYIVVGGGSAGAAVAARLSEDPAVSVALVEAGPDDRGVPEVLQLDRWMELLESGYDWDYPIEPQENGNSFMRHARAKVMGGCSSHNSCIAFWAPREDLDEWEAKYGATGWNAEAAWPLYKRLETNEDAGPDAPHHGDSGPVHLMNVPPKDPTGVALLDACEQAGIPRAKFNTGTTVVNGANFFQINRRADGTRSSSSVSYIHPIVEQENFTLLTGLRARQLVFDADRRCTGVDIVDSAFGHTHRLTARNEVVLSTGAIDTPKLLMLSGIGPAAHLAEHGIEVLVDSPGVGEHLQDHPEGVVQFEAKQPMVAESTQWWEIGIFTPTEDGLDRPDLMMHYGSVPFDMNTLRHGYPTTENGFSLTPNVTHARSRGTVRLRSRDFRDKPMVDPRYFTDPEGHDMRVMVAGIRKAREIAAQPAMAEWTGRELSPGVEAQTDEELQDYIRKTHNTAYHPVGTVRMGAVEDEMSPLDPELRVKGVTGLRVADASVMPEHVTVNPNITVMMIGERCADLIRSARAGETTTADAELSAALA	soluble
MSSYANHQALAGLTLGKSTDYRDTYDASLLQGVPRSLNRDPLGLKADNLPFHGTDIWTLYELSWLNAKGLPQVAVGHVELDYTSVNLIESKSFKLYLNSFNQTRFNNWDEVRQTLERDLSTCAQGKISVALYRLDELEGQPIGHFNGTCIDDQDITIDNYEFTTDYLENATCGEKVVEETLVSHLLKSNCLITHQPDWGSLQIQYRGRQIDREKLLRYLVSFRHHNEFHEQCVERIFNDLLRFCQPEKLSVYARYTRRGGLDINPWRSNSDFVPSTTRLVRQ	soluble
MAHHHHHHMHDANRFGGRTAYLREIGPIDHKKKGRLFKRDLPTLQFNVDVWCAQQTLRKQWKGRDWDVVEMPFEMAPKELQRVVPEKYTDVPIMTDPARHDYMNIRRKVFDREDMQDALFASGGAGQSPYPAIQRVDKAAMTLDKYL	soluble
MELRAVQEVLKEERLDGWLLYSFGGSNPLALEVLGLAHLHLTRRFAYLIPREGAPTLLCHAIEASLFPPLPGNRKTYHTWRGFLEGLAHLLGGMRRVALEYVPGGQIPYLSRVDGGTLDLLRGLGLELASSWPLLLLFQTWDEERLQSHRRAAAGLARAKDLALDFLRQNPEASEREVQSVLVRALEGEGLIFDHPPMVAFGKNAANPHHEPSEVRLEEGAVVLLDLWAKAPGGVYADLTWMAGKRPPEAAHRAFQAVARARDEAIAFVERAYREGRYPKGFEVDRLARKVLEEEGYGPYIRHRTGHNLGEEVHGSGPHLDDLETHDLRPLVPGLAFTVEPGVYLEAFGVRTEVDVYLHPTGPEVTTPLQEAITPL	soluble
MTTIKLIVNSVSKSERESIIAALHGQSIFNGGGLSPLNKISPSHPPKPATVAVPEETEKKARDVNEKTALLKKKSATELGELATSINTIARDAHMEANLEMEIVPQGLRVLIKDDQNRNMFERGSAQIMPFFKTLLVELAPVFDSLDNKIIITGHTDAMAYKNNIYNNWNLSGDRALSARRVLEEAGMPEDKVMQVSAMADQMLLDAKNPQSAGNRRIEIMVLTKSASDTLYQYFGQHGDKVVQPLVQKLDKQQVLSQRTR	not soluble
MLETEHANTEVHELCRQMIARIEKYGTLEGFSDSDILEVLKTIKEILEPLPCLIEIIAPVVVFGDIHGQLGDLLQFTNEVGRPPDFQYLFLGDYVDRGPNSLEVTVWLFCMKILFSKKVHLLRGNHEVRRVNTMYGFKEEMMRKRNSHLWKVFNDVFAELSICASINRKILCMHGGISPKIESWDSLTGMTKPRVHGDCEHGLIVDLIWSDPNRKDDTIQFNKMRGISTLFGKSVVDNLCTTLAIDLIIRAHEMKEVYVFHLYLSSMKGHTFEFDNRLLTVFSAPYYSGHNSNLGSVATISKSLKLRIVTLKPNKGYDRSKLDKRTLHDFEKNFQPLDENPRKNISCQFNVPPNGQKMSPFLGEYSMFAHETQFCKKDNETPVKKPYSSNQDEDHSVLDMIRKTQKGYGVEVSLKDKVMSLESIRKKLGMTTSTTPPPPRTPSPDAPLAQSPPIPRSPPSSTENA	not soluble
TVRLMVDLRHHAAMLEEENDERTRAEQKLAETNVFLNSVVDGVAEPMVVVGLDRRVIMTNRAARDFFQISDVGSDEACHRLIHHRDTPCVREEGMQCPLLDVRTAKRPVIATQEHRDRSGDKRVVEVMTSPLLGSD	not soluble
MGSDKIHHHHHHSNKPEGVIGPFQLVIETKESYLPNDPLDVRVKVFNREKKKENLVLEDFVFSIKRENDTVYEFHFPQRVEKEMEAFESVLVFDLLREEELSNLPGGNYTITVSVKLNGQRVVISKVVSVIEKWQIEVEDLKDFYFPYENVHFFVYLENISSKSRKIRVESIGLIILKGNEAVFERDIPIEKDFVINPMMVEQIHEVSFSAPKESGDYIIKLKLKTESSLIEKSIPLFVTREYQKDLKGLSLVIEGKKFVASGERYDFSVKLLNEEKKRKYIVLKNIMIVLTHKEPVFSYAYSEEYRMTIEGYSSREIFKTTSYDIIKLEDPGTYKLIVVIESEEDRLMKEMEIVVSE	not soluble
MSLAQPCAIIDLETTGGNIARDRITEVGMVLIDGERVERLSWLVNPGQPIPPFIENMTGISNEMVAGAPPFSAQADELLDRLQGRLLLAHNARFDYGFLKNEFRRHGLRFQARALCTVKLSRRLYPQHFKHSLDSLIARHGIDMPERHRALADAEAVYRFIRIAEAELGEDRVAHEAAQLLSQPAELSSLPAELQQQIEEGHHHHHH	not soluble
MSLCAAHAARPLALVMRLGYETAMSQIESLFVTRLYRARLSEHGPAIDPEEMEASCYSIAEDDEAGQEWCEENGYPGYTSYASLTDLPWRFPIFADLVTSLDAHVAAFAADLEFDLDGRKLVLEDLWINILPQGGMHSSHLHPHSVISGTTYVAMPEGASALKLEDPRSGRMMAAPTRTKTARRELQPFIYMKPDVGDVLLWESWLRHEVPMNMSEEERISVSFNYRWDEGHHHHHH	soluble
MSLIIDVLQHVPHEGPGLIANWARENQHQLKIHTLFEENEHVPKDSDFLIVLGGPMGINDTAEFPWLKDERKLIKRLSEQHKPVFGVCLGAQQIAATFGSEITVNKVKEVGWFPVKRTSDKLSFFPESLNVFHWHQDTFALPAGATRLFASEGCLNQAFLYGENIIGLQFHFEMEKAGIETILQIDEAFITPGKYVQSVEVMREKDVPEDNKQMLEAILDYLINPKTIEGHHHHHH	soluble
MSLGQEEAGKLLDSLAEPSKKAYRINSLKEGAVVYPQEEAVPGIPNAYYGEVSGKDPEWTAGLVYSQDPAAMFPAQAIPVKPGDKVLDLCAAPGGKSTALAQKLQGEGLLVANEISPSRAKILRENLERWGVSNAVVTNCDSFALSARFPGFFDAILVDAPCSGEGMFRKSEDAIKYWSQENVDLCADRQREILTEAVKMLKPGGYLLYSTCTFSPEEDEEIVSWLLDEYGFKLLPIAAEKAAPGRPEWGNGDASLANCARFWPQDGVGEGQFVASLQKAAGEESFAAEAGEVFSPVRKNKDKKKKGKGKNKGNRSSLERPSKEESCYISEAIAGFNWPESLASWPSQMLKSQDHVFVPALEPEQLKGIKVLSNGLELGILKKKRFEPSHQLAEVLGQVDQERVVDLTEEEYDHYLHGESLQVNSSLKGFVLVSCRGMIFSFGKLSGKGQLKNYYPKGLRQKGIITITTDPNSSSVDKLAAALEHHHHHH	soluble
MFGGGSSGPVDTTLYTTLNVRPDASQADIKKSYFKLAKEYHPDKNPDHGDKFKEISFAYEVLSSPEKRRLYDARGLEGVQGGGAGGGGGGFPGGLFSHFFGGAGGDDDDDDDDMGGHPFGGLFGGMGGMGRGGPRRRKFQDTVHPLNVTLEELYVGKTSKLKLSKKALCKTCEGSGGKKGEKYKCDACRGRGVKTIVQQIGPGMLQQMQVHCDACKGSGGKVPAGDKCKGCHGEKYENVSKILEVHVLPGMKHNDKITFKGDGDQSDPDGEPGDVVIVIQQKDHDIFKRDGDDLHMTKKLSLNEALCGYNFLIKHLDGHPLVLSSKQGDVIKPGVIRGVLGKGMPNKKYPELKGNLFVEFEVEFPKEHFLDDEKAYAVLKSCFPTSKVVNVTPAAAEVSLMEYDEKKYSRGRGGDAYNEDSDEEQHGGHHGQGVRCQHQ	not soluble
THPVEAAERNYERARAELNQANEDVARNQERQAKAVQVYNSRKSELDAANKTLADAIAEIKQFNRFAHDPMAGGHRMWQMAGLKAQRAQTDVNNKQAAFDAAAKEKSDADAALSAAQERRKQKENKEKDAKDKLD	soluble
